We go through two substances from publication PMC6314544.

The target in assay [1] is hLC3-KCK-his6 (human) (UniProt Q9GZQ8). Put plainly: AUC; sedimentation equilibrium of purified LC3 in solution; dimer to monomers.
For assay [2] the target is unchanged. Put plainly: FRET or BRET; various concentrations of Alexa Fluor 546-labeled NT JMY added to 200 nM Alexa Fluor 647-labeled LC3; 100 mM KCl, 20 mM Hepes pH 7.4. (In BRET a luciferase serves as donor, and the signal depends on an acceptor being close.)

pKd: −log10 of the molar value.

With “hLC3-KCK-his6 (from UniProt Q9GZQ8 1-120) (natural protein)”, the pKd with hLC3-KCK-his6 (human) [1] was less than 3.15.

In turn, “SNAP-JMY (1-314), N-terminal region of JMY (from UniProt Q8N9B5 1-314) (domain or fragment)” showed a pKd with hLC3-KCK-his6 (human) [2] of 7.26.

For orientation: pKd means the negative decadic logarithm of the Kd, by convention in mol/L. Low values mean a high Kd, high ones a low Kd.
